Measurements reported in US20170095421A1 (published 2017).

Tests used:
GPIIbIIIa = assay: SPR (Langmuir binding analysis)
Peptide 2 = assay: SPR (Langmuir binding analysis); GPIIbIIIa mimotope
Peptide 1 = assay: as above

B1: Fibrinogen (ligand)
chain 1: ADSGEGDFLAEGGGVRGPRVVERHQSACKDSDWPFCSDEDWNYKCPSGCRMKGLIDEVNQDFTNRINKLKNSLFEYQKNNKDSHSLTTNIMEILRGDFSSANNRDNTYNRVSEDLRSRIEVLKRKVIEKVQHIQLLQKNVRAQLVDMKRLEVDIDIKIRSCRGSCSRALAREVDLKDYEDQQKQLEQVIAKDLLPSRDRQHLPLIKMKPVPDLVPGNFKSQLQKVPPEWKALTDMPQMRMELERPGGNEITRGGSTSYGTGSETESPRNPSSAGSWNSGSSGPGSTGNRNPGSSGTGGTATWKPGSSGPGSTGSWNSGSSGTGSTGNQNPGSPRPGSTGTWNPGSSERGSAGHWTSESSVSGSTGQWHSESGSFRPDSPGSGNARPNNPDWGTFEEVSGNVSPGTRREYHTEKLVTSKGDKELRTGKEKVTSGSTTTTRRSCSKTVTKTVIGPDGHKEVTKEVVTSEDGSDCPEAMDLGTLSGIGTLDGFRHRHPDEAAFFDTASTGKTFPGFFSPMLGEFVSETESRGSESGIFTNTKESSSHHPGIAEFPSRGKSSSYSKQFTSSTSYNRGDSTFESKSYKMADEAGSEADHEGTHSTKRGHAKSRPV
chain 2: QGVNDNEEGFFSARGHRPLDKKREEAPSLRPAPPPISGGGYRARPAKAAATQKKVERKAPDAGGCLHADPDLGVLCPTGCQLQEALLQQERPIRNSVDELNNNVEAVSQTSSSSFQYMYLLKDLWQKRQKQVKDNENVVNEYSSELEKHQLYIDETVNSNIPTNLRVLRSILENLRSKIQKLESDVSAQMEYCRTPCTVSCNIPVVSGKECEEIIRKGGETSEMYLIQPDSSVKPYRVYCDMNTENGGWTVIQNRQDGSVDFGRKWDPYKQGFGNVATNTDGKNYCGLPGEYWLGNDKISQLTRMGPTELLIEMEDWKGDKVKAHYGGFTVQNEANKYQISVNKYRGTAGNALMDGASQLMGENRTMTIHNGMFFSTYDRDNDGWLTSDPRKQCSKEDGGGWWYNRCHAANPNGRYYWGGQYTWDMAKHGTDDGVVWMNWKGSWYSMRKMSMKIRPFFPQQ
chain 3: YVATRDNCCILDERFGSYCPTTCGIADFLSTYQTKVDKDLQSLEDILHQVENKTSEVKQLIKAIQLTYNPDESSKPNMIDAATLKSRKMLEEIMKYEASILTHDSSIRYLQEIYNSNNQKIVNLKEKVAQLEAQCQEPCKDTVQIHDITGKDCQDIANKGAKQSGLYFIKPLKANQQFLVYCEIDGSGNGWTVFQKRLDGSVDFKKNWIQYKEGFGHLSPTGTTEFWLGNEKIHLISTQSAIPYALRVELEDWNGRTSTADYAMFKVGPEADKYRLTYAYFAGGDAGDAFDGFDFGDDPSDKFFTSHNGMQFSTWDNDNDKFEGNCAEQDGSGWWMNKCHAGHLNGVYYQGGTYSKASTPNGYDNGIIWATWKTRWYSMKKTTMKIIPFNRLTIGEGQQHHLGGAKQAGDV
Kd (GPIIbIIIa): 10.3 nM | Kd (Peptide 2): 334 nM | Kd (Peptide 1): 12500 nM
